What all share (experiment): GST pull-down, quantified immunoblot
For orientation: In western blotting, separated proteins are transferred to a membrane and probed.

Assay [1] concerns the target 3x tandem linear human ubiquitin (C-terminal His-tagged) (UniProt P0CG48). The note with it: - PINK1 (non-phosphorylated 3xUb); parent: est. 16; read off a plot.
Assay [2] has as its target 4x tandem linear human ubiquitin (C-terminal His-tagged), phosphorylated in vitro by GST-TcPINK1 (UniProt P0CG48). The note with it: + PINK1 (4xUb pre-treated with GST-TcPINK1); parent: est. 20; read off a plot.
For assay [3], the target named is 3x tandem linear human ubiquitin (C-terminal His-tagged), phosphorylated in vitro by GST-TcPINK1 (UniProt P0CG48). The note with it: + PINK1 (3xUb pre-treated with GST-TcPINK1); parent: est. 14; read off a plot.
The target in assay [4] is 4x tandem linear human ubiquitin (C-terminal His-tagged) (UniProt P0CG48). The note with it: - PINK1 (non-phosphorylated 4xUb); parent: est. 32; read off a plot.
Assay [5] addresses 2x tandem linear human ubiquitin (C-terminal His-tagged), phosphorylated in vitro by GST-TcPINK1 (UniProt P0CG48). The note with it: + PINK1 (2xUb pre-treated with GST-TcPINK1); parent: est. 7.5; read off a plot.

GST-tagged mouse RABGEF1 (WT) 1-74aa, Q9JM13 Y26A, sequence (Q9JM13 1-74 Y26A): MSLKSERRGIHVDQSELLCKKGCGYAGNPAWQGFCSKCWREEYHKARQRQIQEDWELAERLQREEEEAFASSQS
GST-tagged mouse RABGEF1 (WT) 1-74aa, Q9JM13 A58D, sequence (Q9JM13 1-74 A58D): as the sequence (Q9JM13 1-74 Y26A) above, with A26Y, A58D counted along it

Regarding “GST-tagged mouse RABGEF1 (WT) 1-74aa, Q9JM13 A58D”, the response in assay [1] was 8 % of total; in assay [2], 17 % of total; in assay [3], 8 % of total; in assay [4], 24 % of total.

For “GST-tagged mouse RABGEF1 (WT) 1-74aa, Q9JM13 Y26A”, the response in assay [1] was 14 % of total; in assay [2], 20 % of total; in assay [3], 13 % of total; in assay [4], 28 % of total; in assay [5] it was 4 % of total.

For the origin of these results see paper PMC5780041.
